Measurements as given in patent US20220298216A1 (SYRACUSE UNIVERSITY, published 2022).
Non-standard residues stand in square brackets, D forms with d. No end group written: not given here. NMeF = CN[C@@H](Cc1ccccc1)C(=O)O; NMeL = CN[C@@H](CC(C)C)C(=O)O; NMeS = CN[C@@H](CO)C(=O)O; Dap = NC[C@H](N)C(=O)O; Sar = CNCC(=O)O

T1: human ghrelin O-acyltransferase (hGOAT) (human, UniProt Q96T53 1-435, limits assumed)
T1 sequence (looked up): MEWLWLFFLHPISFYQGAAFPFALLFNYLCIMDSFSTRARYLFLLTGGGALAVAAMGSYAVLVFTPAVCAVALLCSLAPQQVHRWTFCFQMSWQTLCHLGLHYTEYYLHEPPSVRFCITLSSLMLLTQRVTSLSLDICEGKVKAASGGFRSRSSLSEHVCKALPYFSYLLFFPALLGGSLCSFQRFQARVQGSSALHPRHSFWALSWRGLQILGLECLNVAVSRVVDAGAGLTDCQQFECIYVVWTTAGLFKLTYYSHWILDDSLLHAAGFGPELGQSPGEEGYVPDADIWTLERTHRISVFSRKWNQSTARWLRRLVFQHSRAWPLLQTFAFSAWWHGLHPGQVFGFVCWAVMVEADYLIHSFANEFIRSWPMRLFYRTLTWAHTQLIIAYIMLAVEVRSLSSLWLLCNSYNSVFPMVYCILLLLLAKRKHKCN


Columns and labels:
[1] = molecular target: T1, human ghrelin O-acyltransferase (hGOAT); assay: cell-based or functional assay
GOAT (human) = GOAT (human) (UniProt Q96T53); assay: GOAT inhibition assay
[2] = molecular target: ghrelin receptor (GHS-R1a) (Homo sapiens (Human)) (UniProt Q92847); assay: competition binding assay on the ghrelin receptor, IC50
Sequence of ghrelin receptor (GHS-R1a) (Homo sapiens (Human)) (Q92847 whole entry, form in doubt): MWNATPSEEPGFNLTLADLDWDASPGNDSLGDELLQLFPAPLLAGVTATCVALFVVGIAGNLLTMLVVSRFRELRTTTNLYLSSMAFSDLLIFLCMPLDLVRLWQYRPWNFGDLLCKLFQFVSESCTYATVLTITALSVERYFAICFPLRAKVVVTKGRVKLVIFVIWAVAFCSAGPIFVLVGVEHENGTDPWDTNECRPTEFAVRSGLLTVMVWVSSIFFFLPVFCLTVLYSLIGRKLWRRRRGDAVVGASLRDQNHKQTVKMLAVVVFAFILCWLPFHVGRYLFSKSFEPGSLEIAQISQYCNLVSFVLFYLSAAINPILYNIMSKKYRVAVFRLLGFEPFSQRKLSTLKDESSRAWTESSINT

| Molecule | IC50 (µM), inhibitor potency against hGOAT [1] | IC50 (GOAT (human)) | further results |
| --- | --- | --- | --- |
| SarSDapN·MeF (peptide) | 1.5 µM |  |  |
| GSDapF |  | 1200 nM |  |
| GSDap |  | > 100000 nM |  |
| Ac-SDapFL |  | > 100000 nM |  |
| SDapFL |  | > 100000 nM |  |
| GS[Dap]FLS |  | 74 nM |  |
| ghrelin-derived peptide with a sarcosine substitution at the G1 position |  |  | fold loss in binding affinity (IC50) against the unsubstituted peptide [2]: > 25 fold |
| GS[Dap]FL [GSDapFL] | 0.14 µM |  |  |
| G[NMeS][Dap]FL [GN·MeSDapFL] | > 100 µM |  |  |
| GS[Dap][NMeF]L [GSDapN·MeFL] | 0.097 µM |  |  |
| GS[Dap]F[NMeL] [GSDapFN·MeL] | 0.062 µM |  |  |
| [Sar]S[Dap][NMeF][NMeL] [SarSDapN·MeFN·MeL] | 6 µM |  |  |
| [Sar]S[Dap]FL [SarSDapFL] | 0.088 µM |  |  |
